Experimental data as given in PMC2864356 (Biochemistry, 2010).

What was measured:
Assay in all cases: inhibition of PDE activity
PDE5/6cd L792R (human) = PDE5/6cd L792R (human) (UniProt O76074)
PDE5/6cd P803D (human) = PDE5/6cd P803D (human) (UniProt O76074)
PDE5/6cd I802T (human) = PDE5/6cd I802T (human) (UniProt O76074)
PDE5/6cd V796E (human) = PDE5/6cd V796E (human) (UniProt O76074)
[1] = target: PDE5/6cd L792R/V796E/Q799I (human) (UniProt O76074)
PDE5/6cd M804A (human) = PDE5/6cd M804A (human) (UniProt O76074)
PDE5/6cd M804L (human) = PDE5/6cd M804L (human) (UniProt O76074)
[2] = target: chimeric PDE5/PDE6 catalytic domain PDE5/6cd (human) (UniProt O76074)
[3] = target: PDE5/6cd I802A/P803D/M804L (human) (UniProt O76074)
[4] = target: PDE5/6cd I802T/P803D/M804L (human) (UniProt O76074)
PDE5/6cd I802A (human) = PDE5/6cd I802A (human) (UniProt O76074)
PDE5/6cd F823A (human) = PDE5/6cd F823A (human) (UniProt O76074)
[5] = target: PDE5/6cd I802A//M804A (human) (UniProt O76074)
PDE5/6cd Q799I (human) = PDE5/6cd Q799I (human) (UniProt O76074)
[6] = target: PDE5cd T802I/D803P/L804M/A823F (human, UniProt O76074 535-860, T802I | D803P | L804M | A823F)
PDE5cd A823F = PDE5cd A823F (human, UniProt O76074 535-860, A823F)
[7] = target: PDE5cd R792L/E796V/I799Q/A823F (human, UniProt O76074 535-860, R792L | E796V | I799Q | A823F)

Ki (PDE5/6cd L792R (human)) [µM]	Ki (PDE5/6cd P803D (human)) [µM]	Ki (PDE5/6cd I802T (human)) [µM]	Ki (PDE5/6cd V796E (human)) [µM]	Ki [1] [µM]	Ki (PDE5/6cd M804A (human)) [µM]	Ki (PDE5/6cd M804L (human)) [µM]	Ki [2] [µM]	Ki [3] [µM]	Ki [4] [µM]	Ki (PDE5/6cd I802A (human)) [µM]	Ki (PDE5/6cd F823A (human)) [µM]	Ki [5] [µM]	Ki (PDE5/6cd Q799I (human)) [µM]	Ki [6] [µM]	maximal inhibition (%) [6] [%]	Ki (PDE5cd A823F) [µM]	maximal inhibition (%) (PDE5cd A823F)	Ki [7] [µM]	maximal inhibition (%) [7] [%]	Molecule
3.2	6.7	8.6	1.8	6	10.3	2	1.7	25.5	21.8	12.1	15.1	26.2	3.5	–	–	–	–	–	–	Pγ C-terminal peptide Pγ_(63-87) (from UniProt P04972 63-87)
–	–	–	–	–	–	–	–	–	–	–	–	–	–	19.4	72 ± 4	44.3	52 ± 4	23.5	78 ± 5	DITVICPWEAFNHLELHELAQYGII (peptide, UniProt P04972 63-87, looked up) [Pγ C-terminal peptide Pγ_(63-87)]
